From publication PMC9972897 (Science immunology, 2023) come the findings set out here.

Positions count from the first letter of the chain named.

B1: fp.002 (antibody, V domains shown)
VH: VQLVESGGGVVQPGTSLRLSCAGSGFNFDNYAIHWVRQAPGQGLEWVAIISYEARNKKYAGSVTGRFSISRDNSKSMVYLQMDSLRGEDTAVYYCARDLFLSDYDRSGYDPTRGGFDLWGQGTLVTVSS
VL: EIVMTQSPATLSVSPGERATLSCRASQSVSSSLAWYQHKLGQAPRLLIYGASTRATGIPGRFSGSGSGTEFTLTISSLQSEDVAIYYCQQYGDWPLVTFGGGTKVEIK
B2: fp.005 (antibody, V domains shown)
VH: VQLVESGGGVVQPGNSLRLSCAASGFRFNNYAMHWVRQAPGKGLEWVAIISYEARNEKYADSVKGRFSISRDNAKNTLYLQMNSLRADDTGVYYCARDLFLSDYDTSGYDRTRGGFDYWGQGALVTVSS
VL: B1 VL with S31N, S32G, K39R, L40F, A43P, G60T, V83F, I85V, G92D, V97I
B3: fp.011 (antibody, V domains shown)
VH: EVQLLESGGGLVQPGGSLRLSCAGSGFTFNNYAMTWVRQAPGRGLEWVSAISGSGGSSHYADSVKGRFTITRDNSKNTLYLQMNSLRAEDTAVYYCAFIDYYSGWSYYYGLDVWGQGTTVTVSS
VL: EIVLTQSPATLSLSPGERATLSCRASQGVRTYVAWYQQKPGQAPRLLIYDASNRATGIPARFSGSGSGTDFTLTISSLEPEDFAVYYCQQRYNWPLCSFGQGTKLEIK
B4: fp.004 (antibody, V domains shown)
VH: VQLVESGGGVVQPGTSLRLSCVASGFTFSNYAMHWVRQAPGKGLEWVAIISFDTRNTASAASVKGRFNISRDNSKNSLYLQMNSLRPEDTGVYYCARDLFLSDYDSRGYDPITGGFDCWGQGTLVTVSS
VL: EIVMTQSPAALSVSPGEGATLSCRASQSVGSRLAWYQQKLGRPPRLLIYGASTRATGIPARFSGSGSGTEFTLTISSLQSEDFAVYYCQQYNDWPLLTFGGGTKVKIK
B5: fp.010 (antibody, V domains shown)
VH: EVQLLESGGGLVQPGGSLRLSCAASGFTFSTYAMNWVRQAPGKGLEWVSAISSSGLSTQYADSVRGRFTISRDTSKNTLYLHMNSLRAGDTAVYYCAKVEYSGYDPRGPFDSWGQGTLVTVSS
VL: DIQMTQSPSTLSASVGDRVTITCRASQSISGWLAWYQQKPGRAPKLLIYKASSLERGVPSRFSGSGSGTEFTLTISSLQPDDFATYYCQEYSSYPLCTFGQGTKLEIK
B6: fp.001 (antibody, V domains shown)
VH: VQLVESGGGVVQPGRPLRLSCSGSGFIFSNYAMHWVRQAPGKGLEWVAIISFDARNKRYADSVEGRFTISRDNSKNILYLQMNSLRLEDSAVYFCARDLFLSDYDNGVYDPTRGGFDYWGQGTLVTVSS
VL: EIVMTQSPATLSLSPGERATLSCRASQSVNNRLAWYQQKLGQPPRLLISGASTRATGIPARFTGSGSGTEFTLTISSLQSEDFAVYYCQQYHDWPLLSFGGGTKVEIK
B7: fp.003 (antibody, V domains shown)
VH: VQLVESGGGVVQPGTSLRLSCTASGFSFSNYAMHWVRQAPGKGLEWVAIISFDTRNKEFADSVKGRFSISRDNSKNSLNLQMNSLRPEDTGVYYCARDLFLSDYDSRGYEPSRGGFDYWGQGTLVTVSS
VL: B4 VL with A10T, G18R, G30S, R32S, R42Q, Q79K, F83S, T98S, K106E
B8: hr2.017 (antibody, V domains shown)
VH: EVQLVESGGGLVQPGGSLRLSCAVSGFAFSSSWMHWIRQAPGRGLVWVSRINRDGSTTDYADSVKGRFTISRDNAKATLYLQMNSLRAEDTAVYYCATMGFDYWGQGALVTVSS
VL: DIVMTQSPDSLAVSLGERATINCKSSQNVLYSSNNKNHLSWYQQKPGQPPKLLIYWASTRKSGVPDRFSGSGSGTDFTLTINSLQAEDVAVYYCQQYFSTPNTFGQGTKLEIK
B9: hr2.020 (antibody, V domains shown)
VH: EVQLVQSGAEVKKPGESLKISCKGSGYRFASHWIGWVRQMPGKGLQWMGIIYPGDSDTKYSPSFQGQVTISADKSINTVYLHWTSLKASDTAVYYCARRPPHLDGGDSPIRFDHWGQGTLVTVSS
VL: QSVLTQPPSASGTPGQRVTISCSGSRSNIGSNDVYWYQQFPGTAPKLLIYRNNQRPSGVPDRFSGSKSGTSASLAISGLRSEDEADYYCATWDDRLTGVFGGGTKLTVV
B10: hr2.018 (antibody, V domains shown)
VH: EVQLVESGGGLVKPGGSLRLSCVASGSSVIDAWMNWVRQAPGKGLEWVGRIKSKTNGATTDYAAPVKGRFTISRDDSKNLSYLQMNSLKTEDTGIYYCTTSPLPNFDYWGRGTLVTVSS
VL: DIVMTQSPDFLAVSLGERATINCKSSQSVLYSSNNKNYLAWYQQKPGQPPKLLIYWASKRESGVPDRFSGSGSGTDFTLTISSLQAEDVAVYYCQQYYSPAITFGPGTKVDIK
B11: hr2.019 (antibody, V domains shown)
VH: B10 VH with V23A, A32V, S53T, T55A, N56S, T59A, A63G, K89R, T90A
VL: DIVMTQSPDFLAVSLGETATINCRSSQSVFYFANNKNYLAWYQQKPGQPPKLLIYWASKRESGVPDRFSGSGSGTDFTLTISSLQAEDVATYYCQQYSSPAITFGPGTKVDIK
B12: hr2.090 (antibody, V domains shown)
VH: EVQLLESGGGLVQPGGSLRLSCAASGVTFSRYAMSWVRQAPGKGLEWVSTISGGGGGTYYADSVKGRFTISRDNSKNTLYLQMNSLRAEDTAVYYCATLLTVPGPYYFEYWGQGTLVTVSS
VL: EIVLTQSPGTLSLSPGERATLSCRASQSVSSSYLAWYQQKPGQAPRLLIYGASSRATGIPDRFSGSGSGTDFTLTISRLESEDFAVYYCQHSRFTFGPGTRVDIK
B13: hr2.094 (antibody, V domains shown)
VH: EVQLVESGGGLVQPGGSLRLSCAASGFTFSTFWMTWVRQAPGKGLEWVANIKSDGSEKYYVDSVKGRFTISRDNAKNSLYLQMNSLRAEDTAVYYCATWFGLHWGQGTLVTVSS
VL: DIVMTQSPDSLAVSLGERASINCKSSQTVLYSSNNKNYLAWYQQKPGQPPKLLIHWASTRDSGVPDRFSGSGSGTDFTLTISSLQAEDVAVYYCQQYHRIPWTFGRGTKVEIK
B14: hr2.012 (antibody, V domains shown)
VH: QVQLVQSGAEVKKPGASVKVSCKASGYTFTSHYIHWVRQAPGQGLEWMGIIKPSGGNTIYAQTFQGRVTMTRDTSTSTVYMELRSLTSDDTAVYYCARDQDHGLQRWGQGTLVTVSS
VL: QSVLTQPPSVSAPPGQKVTISCSGSSSNIGNNFVSWYQQLPGTAPKLLIYDNIERPSGIPDRFSGSRSGTSATLGITGLQTGDEADYYCGTWDTSLGAWVFGGGTKVTVL
B15: hr2.015 (antibody, V domains shown)
VH: QVQLVQSGAEVKKPGASVKVSCKASGYTFSSYYVNWVRQAPGQGLEWLGIINRSGSSTIYAQKFQGRVTMTRDTSTSTVYLELSSLRSEDTAVYYCARDQDHALHWGQGTLVTVSS
VL: B14 VL with P13A, N31S, F33Y, I53S, G97S, V107L
B16: hr2.013 (antibody, V domains shown)
VH: QVQLVQSGAEVKKPGASVKISCKASGYTFTNNYMNWVRQAPGQGLEWMGIIKPSSGSTIYAHKFQGRVTMTRDTSTSTVYMEVRSLTSEDTAVYYCARDQDHGLQNWGQGTLVTVSS
VL: B14 VL with P13A, P14S, S21Y, G30A, N31S, L40F, I53N, E54Q, V107L
B17: hr2.025 (antibody, V domains shown)
VH: EVQLVQSGAEVKKPGESLKISCKGSGYSFTNYWIAWVRLMPGKGLEWMGFIFPGDSDTRYSPSFQGQVTISADKSISTAYLQWSSLKASDTAIYYCARRRGNSGNHDPYGMDVWGHGTTVTVSS
VL: not shown
B18: hr2.021 (antibody, V domains shown)
VH: QVQLVQSGAEVKKPGASVKVSCKASEAIFSGSYLHWVRQAPGQGLEWMGIITPSGDKTFYAQRFQGRLTMTRDTSTNTLHMHLSGLNSEDTAMYYCARQADKGGWDYWGQGTLVTVSS
VL: EIVLTQSPGTLSLSPGERATLSCRASQSVTSNYVAWYQQKPGQAPRLLIYGASTRATGIPDRFSGGGSGTDFTLTITRLEPEDFAVYYCQQYGSSPPTFTFGPGTKVDIK
B19: hr2.024 (antibody, V domains shown)
VH: QVQLVQSGAEVKKPGASVKVSCKASEDIFTDSYLHWVRQAPGQGLEWMGIITPSGDKTFYAQQFQGRLTMTRDPSTNTLYMFLSGLRSDDTAMYFCARQAEKGGWDYWGHGTLVTVSS
VL: B18 VL with E17Q, A25S, S28T, V29I, V34L, K40R, T54I, G66S, T77S, T100I
B20: hr2.014 (antibody, V domains shown)
VH: QVQLVQSGAEVKKPGASVKVSCKASGYTFTTYAVHWLRQVPGQRPEWIGWINAANGNTKYSEKFQGRVTITRDTSASTAYMDLRSLRSEDTAVYYCARLLVVRDDPYYYGMDVWGQGTTVTVSS
VL: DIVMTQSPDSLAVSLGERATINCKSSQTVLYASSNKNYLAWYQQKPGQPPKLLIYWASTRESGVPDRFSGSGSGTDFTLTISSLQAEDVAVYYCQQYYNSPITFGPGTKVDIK
B21: hr2.086 (antibody, V domains shown)
VH: EVQLLESGGGLVQPGGYLRLSCAASGFTFSSYAMSWVRQAPGKGLEWVSVISGGGGSAYYADSVKGRFTISRDNSKNTLYLQMNSLRAEDTAVYYCAKIGMILVFDYWGQGTLVTVSS
VL: EIVLTQSPGTLSLSPGERATLSCRASQSVSNNYLAWYQQKPGQAPRLLISGASSRATGIPDRFSGSGSGTDFTLTISRLEPEDFAVYYCQQYGSSPPTFGQGTKVEIK
B22: rbd.049 (antibody, V domains shown)
VH: QLQLQESGPGLVKPSETLSLSCTVSGGSISSKSDYWGWIRQSPGKGLEWIGSIYYTGTTYYNPSLKSRVSISLDKSKNQFSLKLNSLTAADTALYYCARDPSIAVATTVYFDAWGQGTLVTVSS
VL: EIVLTQSPGTLSLSPGERATLSCRASESVKSNYLAWYQQKLGQPPRLLIFGASTRATGIPDRFSGSGSGTDFTLTISRLEPEDFAVYYCQQYHTSPPRYTFGQGTKLEIK

One experiment addresses SARS-CoV-2 fusion peptide (FP) coldspot peptide, 812-831 (SARS-CoV-2 (ancestral), biotin-Ahx at the N-terminus; C-terminal amidation).
Turning to B1, the binding result is “binds”.
With B2, the binding result is “binds”.
With B3, the binding result is given as “binds”.
Same read-out and setting: next, B4: “binds”; B5: “binds”.
As for B6, the binding result is listed as “binds”.
In the case of B7, the binding result is “binds”.

The target of a further experiment is SARS-CoV-2 S-2P ectodomain trimer (ancestral) (SARS-CoV-2 (ancestral, MN908947), stabilised).
Regarding B1, the binding result is “binds”.
On the same count and under the same terms, next, B2: “binds”; B8: “binds”.
Same read-out and setting: next, B9: “binds”; B10: “binds”.
The same measure, in the same setting: as for B11, the entry is “binds”; as for B4, “binds”.
With B12, the binding result is on record as “binds”.
Same read-out and setting: next, B13: “binds”.
On the same count and under the same terms, next, B14: “binds”; B15: “binds”.
The same measure, in the same setting: next, B16: “binds”; B17: “binds”; B18: “binds”.
Take B19: the binding result is “binds”.
Still for that read-out and setting: as for B20, the entry is “binds”.
Still for that read-out and setting: next, B6: “binds”; B7: “binds”.
In the case of B21, the binding result is listed as “binds”.

The target in another experiment is SD1-RBD of SARS-CoV-2 S (ancestral), aa 319-591 (SARS-CoV-2, ancestral (Wuhan-Hu-1; …, UniProt P0DTC2).
Turning to B22, the binding result is reported as “binds”.
